Experimental data from article PMC12022260.

Target: T1, His-FleQ (Azotobacter vinelandii AEIV) (UniProt C1DQF1)
T1 sequence: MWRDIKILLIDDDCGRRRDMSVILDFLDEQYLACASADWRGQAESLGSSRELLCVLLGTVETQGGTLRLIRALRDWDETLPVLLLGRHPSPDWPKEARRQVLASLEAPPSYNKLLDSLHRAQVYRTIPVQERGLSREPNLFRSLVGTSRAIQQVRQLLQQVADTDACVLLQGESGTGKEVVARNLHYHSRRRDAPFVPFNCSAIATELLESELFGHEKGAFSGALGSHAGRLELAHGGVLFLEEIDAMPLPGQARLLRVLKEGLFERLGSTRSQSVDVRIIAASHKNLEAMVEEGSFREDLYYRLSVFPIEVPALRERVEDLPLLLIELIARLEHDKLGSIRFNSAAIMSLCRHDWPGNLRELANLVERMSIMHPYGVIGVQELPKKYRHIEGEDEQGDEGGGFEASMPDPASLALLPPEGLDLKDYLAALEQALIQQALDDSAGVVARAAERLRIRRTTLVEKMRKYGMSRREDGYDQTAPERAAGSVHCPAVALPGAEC
Test: EMSA
Settings: 10 mM Tris pH 8, 8 mM Mg acetate, 50 mM KCl, 10 ug/ml BSA, 5% glycerol; 100 ng DNA in 20 ul; room temperature 20 min; 6% native acrylamide gel, 0.5x-1x TBE …

GCGAATTCGGACGCCGCGAGTAAAACGAAAAAGCAAGCCGCCTGAACCCACACTTGCGCTCCCGGCGTTTTGTACCATGCTTTTCCTGAATCATTGTGCTAAGGAGAAAAGTATGAATAAAAGAGGAGCGTTGTTGAGCCTGCTGGATCCAGG (double strand) [yebF regulatory region]
binding: no binding

CCGAAAATGCTGATACGCATTGCGTTCACCTCGTCCTTATTTAACGAAAAGTCGACGACTAAAACCCTTGGTCGTCACATTGCCGGCGGCCTTCAAGGGAAATTTGCAGGCCGAATTATAGTCAATAAAATGTCGTGCCAAATGAGCTGGCGTTAAAAGGCAGGTTGCAAGGGATGCTTTATAACTGCTCAAGCGATCCATGTTCG (double strand) [algD proximal region]
binding: binds
